Data: patent US7575909B2, “Oxidoreductase from pichia capsulata” (IEP GmbH, priority 2003, dated 2009)

Columns and labels:
[1] = Enzyme activity on expression of the oxidoreductase in E. coli; format: biochemical, Escherichia coli
Excerpt: Competent Escherichia coli StarBL21 (De3) cells (Invitrogen) were transformed with the expression construct pET21-PC#10 coding for the oxidoreductase according to the invention.
(§1) The transformed strain was cultivated in an LB medium (1% tryptone, 0.5% yeast extract, 1% NaCl) with ampicillin (50 ig/ml) until an optical density, measured at 500 nm, of 0.5 was reached. The production of the recombinant oxidoreductase protein was initiated by adding isopropylthiogalactoside (IPTG) at a final concentration of 1 mM. The induction batch was incubated for another 15 h at 25° C. and 220 rpm.
Competent Escherichia coli RB791 cells were transformed with the expression construct pQE30-PC#12 coding for the oxidoreductase according to the invention.
as §1, with “adding IPTG” for “adding isopropylthiogalactoside (IPTG)”, “of 0.1” for “of 1”, “15 hours” for “15 h”, “rpm. The enzyme activity achieved amounted to approx. 1000 U/g of wet cell mass.” for “rpm.”

[2] = pH stability of the recombinant oxidoreductase; format: physicochemical; conditions: pH values above 9.0 and below 5.0
Method: The determination of the activity of the recombinant oxidoreductase was examined by storage in the buffer systems mentioned in Table 3. For this purpose, the various buffers (50 mM) were prepared in a pH range of 4 to 11, and the oxidoreductase produced according to Example 4 was diluted therewith. After 30, 60 and 300 min of incubation, 10 μl were removed from the batch and used in the activity test according to Example 1.
Thereby, the initial value is the measured value which was obtained immediately after diluting (1:20) the enzyme in the potassium phosphate buffer 50 mM pH=7.0. Under the given conditions, said value corresponded to an extinction variation of approx. 0.70/min and was set as a 100% value, and all the following measured values were set in relation to said value.

[3] = Temperature optimum of the oxidoreductase; format: biochemical
Method: In order to determine the optimum test temperature, the enzyme activity was measured in the standard measuring batch in a temperature range of 15° C. to 70° C.

[4] = Temperature stability of the oxidoreductase; format: physicochemical; conditions: after 30 min
Method: The temperature stability was determined for the range of 15° C. to 70° C. in a manner analogous to that described under Example 5.2. […] Also in this case, the measured value obtained immediately after diluting the purified oxidoreductase in a potassium phosphate buffer 50 mM pH=7.0 was used as the initial value. Said value was set as a 100% value also in this example.

[5] = Solvent stability of the oxidoreductase; format: physicochemical; conditions: RT
Method: The enzyme stability of the oxidoreductase from P. capsulata was examined in the presence of organic solvents. For this purpose, the oxidoreductase was in each case diluted 1:20 with the indicated solvent mixtures (in case of water-miscible organic solvents) and was incubated at room temperature (20° C. to 24° C.; RT). Subsequently, 10 μl of the enzyme solution were used in the standard test batch. Also in this case, the initial value was equalled to 100% after dilution in the buffer (potassium phosphate buffer (KPP) 100 mM, pH=7.0), and all the other values were set in relation to said initial value.
In case of water-immiscible organic solvents, the dilution likewise took place in a potassium phosphate buffer, the same volume of an organic solvent was added to the batch and the batch was incubated at RT in a thermomixer at 170 rpm. The activity was measured from the aqueous phase.

B1: oxidoreductase from Pichia capsulata: NADH-dependent (S)-specific zinc-dependent carbonyl reductase from Pichia capsulata, amino acid sequence SEQ ID NO: 9, 341 amino acids (protein, listed as Pichia capsulata)
chain: MSALSKTQAGYIFKKGAGHIVKAEVPIPKPTGAQSLLRVKAAGMCHSDLHVIGETLEVPTDGYVLGHEIAGELVEIGDSVNPEVFKVGGRYAVHGLNSCGSCEMCRTGHDNDCTGNESKWYGLGISGGYQQYLLVPNSHHLLPIPDNVSYEVAAATSDAVLTPYHAIKNSGVTPSSKVLMFGLGGLGSNALQILKAFGAYVVAVDVKPASKAIADEFKADEFYTDISQSSWKPASFDYCFDFVSLQVTFDICQKYIKSHGTIFPVGLGSSKLTFDLGNLALREVKIVGNFWGTSQEQIEAMELVSSGRVKPQVHTTELENLPESLEKLEEGKINGRLVMLP
In the case of B1, the enzyme activity achieved ([1]; E. coli RB791, construct pQE30-PC#12, 0.1 mM IPTG) is reported as “approx. 1000 U/g of wet cell mass”, the enzyme activity achieved ([1]; E. coli StarBL21 (De3), construct pET21-PC#10, 1 mM IPTG) is reported as “approx. 6000 U/g of wet cell mass” and the “effect of incubation at extreme pH” value [2] is reported as “immediate deactivation”. For the same molecule, the “Activity in U/ml undiluted enzyme” value ([3]; 15 ° C.) was 73 U/ml, the “Activity in U/ml undiluted enzyme” value ([3]; 20 ° C.) was 83 U/ml and the “Activity in U/ml undiluted enzyme” value ([3]; 25 ° C.) was 128 U/ml. The “Activity in U/ml undiluted enzyme” value ([3]; 30 ° C.) was 135 U/ml, the “Activity in U/ml undiluted enzyme” value ([3]; 35 ° C.) was 163 U/ml and the “Activity in U/ml undiluted enzyme” value ([3]; 40 ° C.) was 170 U/ml. For the same molecule, the “Activity in U/ml undiluted enzyme” value ([3]; 45 ° C.) was 176 U/ml, the “Activity in U/ml undiluted enzyme” value ([3]; 50 ° C.) was 122 U/ml and the “Activity in U/ml undiluted enzyme” value ([3]; 55 ° C.) was 45 U/ml. For the same molecule, the “Activity in U/ml undiluted enzyme” value ([3]; 60 ° C.) was 0 U/ml, the “Activity in U/ml undiluted enzyme” value ([3]; 65 ° C.) was 0 U/ml and the “Activity in U/ml undiluted enzyme” value ([3]; 70 ° C.) was 0 U/ml. For the same molecule, the “optimum temperature (maximum activity)” value ([3]; standard measuring batch, 15° C. to 70° C., listed as recombinant oxidoreductase from P. capsulata) was 45 °C, the “enzyme activity after incubation at 55° C.” value [4] was “can no longer be detected” and the Activity ([5]; 5% EtOH, 8 h) was 77%. For the same molecule, the Activity ([5]; 5% EtOH, 24 h) was 77%, the Activity ([5]; 5% isopropanol, 8 h) was 77% and the Activity ([5]; 5% isopropanol, 24 h) was 77%. It also gave an Activity ([5]; 10% DSMO, 8 h) of 42%, an Activity ([5]; 10% DSMO, 24 h) of 45% and an Activity ([5]; 10% EtOH, 8 h) of 77%. For the same molecule, the Activity ([5]; 10% EtOH, 24 h) was 77%, the Activity ([5]; 10% isopropanol, 8 h) was 72% and the Activity ([5]; 10% isopropanol, 24 h) was 72%. For the same molecule, the Activity ([5]; 20% DSMO, 8 h) was 30%, the Activity ([5]; 20% DSMO, 24 h) was 30% and the Activity ([5]; 20% EtOH, 8 h) was 100%. For the same molecule, the Activity ([5]; 20% EtOH, 24 h) was 100%, the Activity ([5]; 20% isopropanol, 8 h) was 46% and the Activity ([5]; 20% isopropanol, 24 h) was 46%. For the same molecule, the Activity ([5]; 30% EtOH, 8 h) was 64%, the Activity ([5]; 30% EtOH, 24 h) was 64% and the Activity ([5]; 30% isopropanol, 8 h) was 18%. It also gave an Activity ([5]; 30% isopropanol, 24 h) of 18%, an Activity ([5]; Buffer KPP 100 mM pH = 7, 1 mM MgCl2, 8 h) of 100% and an Activity ([5]; Buffer KPP 100 mM pH = 7, 1 mM MgCl2, 24 h) of 100%. For the same molecule, the Activity ([5]; butyl acetate (same volume, two-phase), 8 h) was 53%, the Activity ([5]; butyl acetate (same volume, two-phase), 24 h) was 28% and the Activity ([5]; chloroform (same volume, two-phase), 8 h) was 51%. It also gave an Activity ([5]; chloroform (same volume, two-phase), 24 h) of 0%, an Activity ([5]; cyclohexane (same volume, two-phase), 8 h) of 85% and an Activity ([5]; cyclohexane (same volume, two-phase), 24 h) of 70%. It also gave an Activity ([5]; diethyl ether (same volume, two-phase), 8 h) of 100%, an Activity ([5]; diethyl ether (same volume, two-phase), 24 h) of 100% and an Activity ([5]; diisopropyl ether (same volume, two-phase), 8 h) of 100%. The Activity ([5]; diisopropyl ether (same volume, two-phase), 24 h) was 100%, the Activity ([5]; ethyl acetate (same volume, two-phase), 8 h) was 2% and the Activity ([5]; ethyl acetate (same volume, two-phase), 24 h) was 0%. The Activity ([5]; heptane (same volume, two-phase), 8 h) was 74%, the Activity ([5]; heptane (same volume, two-phase), 24 h) was 43% and the Activity ([5]; hexane (same volume, two-phase), 8 h) was 60%. The Activity ([5]; hexane (same volume, two-phase), 24 h) was 20%, the Activity ([5]; methyl tert-butyl ether (same volume, two-phase), 8 h) was 100% and the Activity ([5]; methyl tert-butyl ether (same volume, two-phase), 24 h) was 100%.
